Reference: patent US12404346B2, “Anti-naloxone and anti-naltrexone monoclonal antibodies and methods of production and use thereof” (Siemens Healthcare Diagnostics Inc., priority 2019, dated 2025)

Assays:
[1] = inhibition ELISA, anti-naltrexone monoclonal antibodies against key opioids (FIG. 8); format: binding; conditions: free drug 20 μg/mL, plates coated with ovalbumin conjugate
From the text: (§1) Mice with good anti-drug antibody titers and binding to free drug in the ELISA inhibition assays were selected to proceed with generation of monoclonal antibodies, in a similar manner to that described in U.S. Pat. No. 9,815,907 (issued to Sharma et al. on Nov. 14, 2017). In particular, mice with highest titers and best specificity were boosted three days prior to fusion. On the day of fusion, spleen cells were harvested from these mice and were fused with myeloma cell line P3X63Ag8.653 using PEG-assisted fusion protocols. After about ten days, hybridoma supernatants were screened for anti-naloxone and anti-naltrexone antibodies using a plate ELISA (direct binding and inhibition ELISA for specificity). Positive clones were further expanded and sub-cloned, and supernatants were purified using a Protein A SEPHAROSE® (GE Healthcare, Chicago, IL) column. Purified antibody samples were tested using ELISA for binding to the immunogen (i.e., a conjugate of drug-carrier protein) and to free opioids.
(§2) Antibody solution (Immune mouse bleeds or hybridoma clones supernatant or purified antibody) was screened using an inhibition ELISA procedure according to the following protocol. […] Plate coating was performed for 1 hour or more at room temperature or overnight at about 2° C. to 8° C. The plates were then flicked dry and blocked with 200 μL per well of blocking buffer solution (0.5% Casein solution in PBS containing 0.05% TWEEN® 20 surfactant (Croda International PLC, Snaith, United Kingdom). Plate blocking was performed by incubation for 30 minutes or more at room temperature with plate shaking. The plates were washed using a plate washer (BioTek®, Winooski, VT) with plate stacker with the washing buffer being MILLIQ® water (Millipore Corporation, Billerica, MA) containing 0.05% TWEEN® 20. The monoclonal antibody to be screened was then added to each well along with free drug as follows: 25 μL per well of appropriately diluted culture supernatant (or antibody solution) and added 25 μL of 20 μg/mL of free drug. Incubation was performed for about 1 hour at room temperature with plate shaking. The plate was washed. An enzyme conjugate (goat anti-mouse IgG coupled to HRP diluted in blocking buffer diluted to 1:3000) was added at 50 μL per well. Incubation was performed for about 1 hour at room temperature with shaking. The plate was then washed, and a chromogenic solution (TMB from Moss Substrates, Pasadena MD) was added at a volume of 100 μL per well. If a desired antibody was present in the hybridoma supernatant, then a decrease in optical density was observed compared to the well containing no free drug. The plates were read at 650 nm wavelength using an ELISA plate reader (Molecular Devices, San Jose, CA). Note: appropriate dilution of antibody solution was determined by performing a titration ELISA. The antibody dilution was chosen where around 1.0 optical density was observed.

[2] = opiate enzyme multiplied immunoassay with antibody blocker (FIG. 11, FIG. 12); conditions: cutoff 300 ng/mL; FIG. 11 and FIG. 12
[3] = inhibition ELISA, anti-naloxone monoclonal antibodies against key opioids (FIG. 7); format: binding; conditions: free drug 20 μg/mL, plates coated with ovalbumin conjugate
From the text: as §1, §2

B1: 180A 3D3: anti-naltrexone monoclonal antibody generated using naltrexone-3-Val-mcKLH; heavy chain SEQ ID NO:21, light chain SEQ ID NO:25 (antibody)
heavy: MYLGLNCVFIVFLLKGVQSEVNLEESGGGLVQPGGSMKLSCVASGFTFSNYWMNWVRQSPERGLEWVAEISLKSYNYATHYAESVKGRFTISGDESKNSVYLQMNNLRAEDTGIYFCTRGDSYALDYGQRTLVTVSS
light: MEFQTQVLMSLLLCMSGACADIVMTQSPTFLAVTVSKKVTISCTASESLYSSKHKVHYLAWYQKKPEQSPKLLIYGASNRYIGVPDRFTGSGSGTDFTLTISSVQVEDLTHYYCAQFYSYPYTFGGGKLEIK
modifications: Amino Acid sequence of heavy chain of monoclonal antibody 180A 3D3; Amino Acid sequence of light chain of monoclonal antibody 180A 3D3
Q: What does the source list for B1?
A: specificity for naltrexone over the other key opioids tested in the inhibition ELISA assay [1]: good specificity for naltrexone; change of naloxone/naltrexone cross reactivity response in the presence of the antibody blocker [2]: cross reactivity of naloxone and naltrexone changes from a positive to a negative response to the cutoff

B2: 179B 10A7: anti-naloxone monoclonal antibody generated using naloxone-3-Val-mcKLH; heavy chain SEQ ID NO:201, light chain SEQ ID NO:205 (antibody, V domains shown)
VH: MGWSWIFLFLLSGTAGVHCQIQLQQSGPELVKPGASVKISCKASDYSFTKSYINWVKQRPGQGLEWIGWIYPGSANIKYNEKFRDKATLTVDTSSNTAYIQLSSLTSEDSAVYFCEMGTHYTYDVMDWGQGTSVTVSS
VL: MEFQTQVFVFVLLWLSGVDGDIVMTPSQKFMSTSVGDRVSITCKASQNVRTSVGWYQQKPGQSPKPLIYAASNRHTGVPDRFTGSGSGTDFSLTITNVQSEDQADYFCLQHWNYPWTFGGGTKLEIK
modifications: Amino acid sequence of heavy chain of monoclonal antibody 179B 10A7; Amino acid sequence of light chain of monoclonal antibody 179B 10A7
Q: Which “specificity for naloxone over the other key opioids tested in the inhibition ELISA assay” value [3] does the source give for B2 here?
A: The value was “good specificity for naloxone”.

B3: 179B 9E7: anti-naloxone monoclonal antibody generated using naloxone-3-Val-mcKLH; heavy chain SEQ ID NO:241, light chain SEQ ID NO:245 (antibody)
heavy: MYLGLNCVIIVFLLKGVQSEMKLEESGGGLVQPGGSMKLSCTASGFTFSDAWMDWVRQSPEKGLEWVAEIRNKAYNHATYYAESVRGRFTISRDDSKSKMFLEMNSLRPEDTGIYYCIGGIWTDFDYGQGTTLTVSS
light: MESQTQVFVYMLLWLSGVDGDIVMTQSQKFMSTSVGDRVSVTCKASQNVGINVAWYQQKSGQPPKALIYSASSRYSGVPDRFTGSGSGTDFTLTISNVQSEDLAEYFCHQYNNYPLTFGAGTKLDLK
modifications: Amino acid sequence of heavy chain of monoclonal antibody 179B 9E7; Amino acid sequence of light chain of monoclonal antibody 179B 9E7
Q: Which “specificity for naloxone over the other key opioids tested in the inhibition ELISA assay” value [3] does the source give for B3 here?
A: The value was “good specificity for naloxone”.
